Measured values from US20130121915A1.
Residue numbers refer to the chain shown, from its start.

What was measured:
[1] = test system: wild type OprD (FadL-OprD with C-terminal two glycines and 6 histidines)
[2] = biological target: FhuA7/10-1 with histidine tag; test: cell-based or functional assay
[3] = biological target: T1, native OPRD pseudomonas aeruginosa beta barrel channel polypeptide, expressed with surface antigen D15 signal peptide and a tag
T1 chain: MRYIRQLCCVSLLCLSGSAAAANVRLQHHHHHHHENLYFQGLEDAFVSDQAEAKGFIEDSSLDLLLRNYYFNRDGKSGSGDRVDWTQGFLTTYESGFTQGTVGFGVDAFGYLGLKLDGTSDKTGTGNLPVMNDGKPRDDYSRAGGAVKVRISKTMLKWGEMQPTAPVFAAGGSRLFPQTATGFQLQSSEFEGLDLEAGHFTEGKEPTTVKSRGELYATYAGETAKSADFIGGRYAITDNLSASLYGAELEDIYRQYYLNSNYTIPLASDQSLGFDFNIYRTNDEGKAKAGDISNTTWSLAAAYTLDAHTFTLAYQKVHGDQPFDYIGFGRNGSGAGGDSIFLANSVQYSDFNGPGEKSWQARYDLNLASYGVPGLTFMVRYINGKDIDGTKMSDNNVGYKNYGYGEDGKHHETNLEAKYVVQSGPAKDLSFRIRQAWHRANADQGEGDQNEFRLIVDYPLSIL

[4] = biological target: T2, OprD mutant L8 mmp7turk#3
T2 chain: T1 chain with G398A, K400S, N401L, Y402T, G403A, Y404G

[5] = biological target: T3, FhuA7/10-1 with histidine tag
T3 chain: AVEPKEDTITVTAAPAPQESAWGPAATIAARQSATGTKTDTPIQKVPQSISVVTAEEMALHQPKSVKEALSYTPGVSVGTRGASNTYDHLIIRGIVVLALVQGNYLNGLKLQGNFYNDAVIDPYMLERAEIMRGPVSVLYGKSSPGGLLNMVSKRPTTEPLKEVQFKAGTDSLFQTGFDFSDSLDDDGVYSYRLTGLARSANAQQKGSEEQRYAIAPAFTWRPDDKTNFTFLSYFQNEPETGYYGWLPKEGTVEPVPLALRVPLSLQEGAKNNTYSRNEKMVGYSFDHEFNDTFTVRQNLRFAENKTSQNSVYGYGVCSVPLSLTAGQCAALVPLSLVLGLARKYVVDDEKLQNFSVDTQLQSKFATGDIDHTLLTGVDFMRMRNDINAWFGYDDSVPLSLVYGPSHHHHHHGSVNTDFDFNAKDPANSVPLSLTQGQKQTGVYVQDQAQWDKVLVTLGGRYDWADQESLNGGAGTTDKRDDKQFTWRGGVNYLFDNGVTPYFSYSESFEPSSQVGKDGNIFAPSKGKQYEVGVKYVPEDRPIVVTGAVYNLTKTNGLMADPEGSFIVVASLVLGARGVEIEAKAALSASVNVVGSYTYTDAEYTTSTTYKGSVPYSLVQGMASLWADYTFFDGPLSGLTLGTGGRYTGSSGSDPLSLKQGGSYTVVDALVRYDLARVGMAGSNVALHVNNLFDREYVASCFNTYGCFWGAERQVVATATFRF

[6] = biological target: T4, wild type OprD (FadL-OprD with C-terminal two glycines and 6 histidines)
T4 chain: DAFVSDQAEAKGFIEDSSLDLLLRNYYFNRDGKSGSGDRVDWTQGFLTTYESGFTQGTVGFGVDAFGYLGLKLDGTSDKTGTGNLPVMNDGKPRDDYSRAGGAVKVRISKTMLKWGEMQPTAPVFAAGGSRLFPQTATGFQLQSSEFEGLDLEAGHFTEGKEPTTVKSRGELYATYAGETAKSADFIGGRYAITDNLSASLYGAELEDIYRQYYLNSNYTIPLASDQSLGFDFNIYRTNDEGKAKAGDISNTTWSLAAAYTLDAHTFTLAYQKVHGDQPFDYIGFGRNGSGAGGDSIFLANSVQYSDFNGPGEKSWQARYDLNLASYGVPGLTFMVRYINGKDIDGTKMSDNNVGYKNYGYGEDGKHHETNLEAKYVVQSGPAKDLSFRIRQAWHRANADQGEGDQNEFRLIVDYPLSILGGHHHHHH

## enterokinase (Novagen, cat#69066-3)
OprD mutant L8rek#1
  proteolysis over time, gel bands: incubating enterokinase with the mutant L8rek#1 (SEQ ID NO: 22798) shows specific cleavage since band “a” disappears and band “b” becomes more apparent over time
[1]
  proteolysis over time, gel bands: Incubation of enterokinase with the wild type OprD yields a non specific band, that does not increase over time

## factor Xa (Novagen, cat#69036-3)
[1]
  proteolysis over time, gel bands: Incubation of Factor X enzyme with the wild type OPRD yields a few non specific bands
OprD mutant L8fxa#1
  proteolysis over time, gel bands: incubation of factor X with mutant L8fxa#1 (SEQ ID NO: 22788) shows specific cleavage, since bands “a” and “b” become more apparent with time

## human matrix metalloproteases seven (MMP-7, Calbiochem, cat #444270) (from UniProt P09237 95-267) (enzyme)
[2]
  inward ionic current, whole-cell patch clamp of HEK293T cells expressing FhuA7/10-1 after addition of MMP-7: 20000 >=

B1: human matrix metalloproteases seven (MMP-7, Calbiochem, cat #444270) (protein)
chain: YSLFPNSPKWTSKVVTYRIVSYTRDLPHITVDRLVSKALNMWGKEIPLHFRKVVWGTADIMIGFARGAHGDSYPFDGPGNTLAHAFAPGTGLGGDAHFDEDERWTDGSSLGINFLYAATHELGHSLGMGHSSDPNAVMYPTYGNGDPQNFKLSQDDIKGIQKLYGKRSNSRKK
[3]
  cleavage, Western blot: the native protein (solubilized in DDM) was not cleaved in the presence of MMP-7 (concentration 0.25 Units per 16 ug of total protein)
[4]
  proteolysis, gel bands: incubating mmp7 with the mutant L8 mmp7turk#3 (SEQ ID NO: 22836) shows cleavage as the main protein band disappears
[5]
  cleavage kinetics 0 to 720 min, Western blot and densitometry: the amount of uncleaved protein (˜81 kDa, indicated by ‘a’) decreases while the amount of the cleaved one increases (˜57 kDa, indicated by ‘b’); after 12 hours all His-tagged polypeptides (˜81 kDa) completely disappear along with the ˜57- and ˜37-kDa bands
  cleavage of membrane-integrated FhuA7/10-1, Western blot with anti-His5: Incubation of the membranes with human MMP-7 for 30 minutes at 37 °C resulted in the appearance of ˜57- and ˜37-kDa bands
[6]
  proteolysis, gel bands: Incubation of MMP7 with wild type OprD yields a few non specific bands, compared with the control sample held at the same temperature for 24 hours but with out the MMP7
